From US20250262210A1 (TRUSTEES OF COLUMBIA UNIVERSITY IN THE CITY OF NEW YORK, published 2025)

Columns and labels:
Assay in all cases: IP/MS, LZTR1 wild type-FLAG, U87
IFT172 = IFT172 (human, UniProt Q9UG01 1-1749, limits assumed)
Method in brief: (§1)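 Read-out: spectral counts from LC-MS/MS (Orbitrap Fusion) after MaxQuant identification. Variable modifications were Met oxidation, protein N-terminal acetylation and N/Q deamidation.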

EIF2AK4 = EIF2AK4 (human, UniProt Q9P2K8 1-1649, limits assumed)
EIF2AK4, sequence (Q9P2K8 whole entry): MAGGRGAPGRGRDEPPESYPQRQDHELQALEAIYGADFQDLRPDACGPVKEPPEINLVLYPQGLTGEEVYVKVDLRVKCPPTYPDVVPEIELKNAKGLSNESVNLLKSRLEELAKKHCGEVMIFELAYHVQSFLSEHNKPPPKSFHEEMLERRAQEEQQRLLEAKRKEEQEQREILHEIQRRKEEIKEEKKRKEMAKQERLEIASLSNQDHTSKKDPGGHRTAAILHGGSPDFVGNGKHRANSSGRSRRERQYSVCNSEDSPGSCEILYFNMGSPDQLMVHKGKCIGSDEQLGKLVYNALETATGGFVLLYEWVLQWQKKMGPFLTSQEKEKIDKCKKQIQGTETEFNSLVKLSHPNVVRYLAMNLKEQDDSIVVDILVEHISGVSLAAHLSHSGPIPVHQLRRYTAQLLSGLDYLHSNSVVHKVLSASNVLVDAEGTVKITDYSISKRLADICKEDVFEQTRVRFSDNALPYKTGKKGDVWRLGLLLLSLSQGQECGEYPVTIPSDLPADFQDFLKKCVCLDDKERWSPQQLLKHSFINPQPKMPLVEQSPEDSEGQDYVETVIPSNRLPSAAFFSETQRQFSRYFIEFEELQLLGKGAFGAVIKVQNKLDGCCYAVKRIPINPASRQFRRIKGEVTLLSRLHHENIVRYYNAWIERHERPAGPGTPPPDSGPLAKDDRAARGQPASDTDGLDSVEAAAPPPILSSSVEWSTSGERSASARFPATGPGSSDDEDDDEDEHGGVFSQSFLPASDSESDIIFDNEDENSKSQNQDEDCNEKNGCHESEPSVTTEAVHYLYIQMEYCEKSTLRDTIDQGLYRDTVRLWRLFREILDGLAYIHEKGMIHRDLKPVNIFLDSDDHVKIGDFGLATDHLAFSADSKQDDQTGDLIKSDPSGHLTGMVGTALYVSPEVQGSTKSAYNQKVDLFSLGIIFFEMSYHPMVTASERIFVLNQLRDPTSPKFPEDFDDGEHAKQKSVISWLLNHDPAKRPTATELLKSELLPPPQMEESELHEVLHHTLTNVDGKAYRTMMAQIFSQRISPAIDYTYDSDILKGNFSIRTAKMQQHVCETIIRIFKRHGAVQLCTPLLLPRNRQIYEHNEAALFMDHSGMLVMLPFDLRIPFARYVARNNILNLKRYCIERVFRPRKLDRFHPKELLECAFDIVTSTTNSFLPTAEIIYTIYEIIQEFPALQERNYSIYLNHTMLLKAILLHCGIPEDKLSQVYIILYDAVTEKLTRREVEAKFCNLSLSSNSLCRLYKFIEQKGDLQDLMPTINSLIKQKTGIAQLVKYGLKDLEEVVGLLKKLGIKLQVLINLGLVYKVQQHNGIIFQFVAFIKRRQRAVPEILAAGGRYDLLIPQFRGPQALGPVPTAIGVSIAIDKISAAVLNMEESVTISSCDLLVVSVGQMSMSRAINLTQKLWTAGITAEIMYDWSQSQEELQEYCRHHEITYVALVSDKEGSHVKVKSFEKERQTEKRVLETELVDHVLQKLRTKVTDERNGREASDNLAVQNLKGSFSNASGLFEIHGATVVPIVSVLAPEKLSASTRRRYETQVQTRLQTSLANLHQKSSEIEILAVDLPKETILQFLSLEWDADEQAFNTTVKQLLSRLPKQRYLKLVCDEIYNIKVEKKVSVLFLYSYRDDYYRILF
Method in brief: as §1

ATAD2 = target: T1, ATAD2 (human, UniProt Q6PL18 1-1390, limits assumed)
T1 sequence (looked up): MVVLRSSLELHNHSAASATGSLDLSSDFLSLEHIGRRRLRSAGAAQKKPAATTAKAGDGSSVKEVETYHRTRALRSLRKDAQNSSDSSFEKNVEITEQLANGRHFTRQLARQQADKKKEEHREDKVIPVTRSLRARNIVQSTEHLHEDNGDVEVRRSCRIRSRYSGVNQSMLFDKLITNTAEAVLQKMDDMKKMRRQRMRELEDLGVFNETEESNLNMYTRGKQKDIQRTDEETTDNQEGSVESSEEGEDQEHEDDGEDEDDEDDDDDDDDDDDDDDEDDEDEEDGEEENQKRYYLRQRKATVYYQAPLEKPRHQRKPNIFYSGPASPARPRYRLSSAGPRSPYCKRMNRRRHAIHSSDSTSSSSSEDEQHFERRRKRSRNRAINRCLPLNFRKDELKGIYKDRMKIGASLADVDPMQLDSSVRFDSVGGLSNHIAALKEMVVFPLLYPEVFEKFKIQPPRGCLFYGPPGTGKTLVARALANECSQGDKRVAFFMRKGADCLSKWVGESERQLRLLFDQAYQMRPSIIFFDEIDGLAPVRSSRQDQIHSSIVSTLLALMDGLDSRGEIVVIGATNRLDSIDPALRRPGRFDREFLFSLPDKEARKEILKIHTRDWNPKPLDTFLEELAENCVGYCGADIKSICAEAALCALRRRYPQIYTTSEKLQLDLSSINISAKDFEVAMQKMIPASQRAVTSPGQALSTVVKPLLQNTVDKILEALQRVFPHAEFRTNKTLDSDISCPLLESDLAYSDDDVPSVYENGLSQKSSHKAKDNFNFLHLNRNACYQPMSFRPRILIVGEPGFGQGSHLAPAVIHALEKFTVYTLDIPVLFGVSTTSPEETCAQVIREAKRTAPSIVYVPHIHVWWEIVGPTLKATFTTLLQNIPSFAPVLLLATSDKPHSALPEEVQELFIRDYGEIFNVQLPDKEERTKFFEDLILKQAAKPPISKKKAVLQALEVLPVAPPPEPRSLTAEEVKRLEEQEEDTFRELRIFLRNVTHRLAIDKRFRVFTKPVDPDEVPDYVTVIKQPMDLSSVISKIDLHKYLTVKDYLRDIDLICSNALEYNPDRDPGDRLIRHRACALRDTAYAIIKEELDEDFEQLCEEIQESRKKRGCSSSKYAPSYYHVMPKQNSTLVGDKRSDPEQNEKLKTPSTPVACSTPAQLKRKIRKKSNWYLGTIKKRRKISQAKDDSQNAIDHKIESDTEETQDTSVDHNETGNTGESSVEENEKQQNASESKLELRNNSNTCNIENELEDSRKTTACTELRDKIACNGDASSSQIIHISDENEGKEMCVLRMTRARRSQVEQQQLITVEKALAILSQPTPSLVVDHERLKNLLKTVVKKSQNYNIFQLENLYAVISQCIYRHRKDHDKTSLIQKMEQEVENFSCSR
Method in brief: as §1

Measured: binding result

IFT172, sequence (Q9UG01 whole entry, the tested form may be a part): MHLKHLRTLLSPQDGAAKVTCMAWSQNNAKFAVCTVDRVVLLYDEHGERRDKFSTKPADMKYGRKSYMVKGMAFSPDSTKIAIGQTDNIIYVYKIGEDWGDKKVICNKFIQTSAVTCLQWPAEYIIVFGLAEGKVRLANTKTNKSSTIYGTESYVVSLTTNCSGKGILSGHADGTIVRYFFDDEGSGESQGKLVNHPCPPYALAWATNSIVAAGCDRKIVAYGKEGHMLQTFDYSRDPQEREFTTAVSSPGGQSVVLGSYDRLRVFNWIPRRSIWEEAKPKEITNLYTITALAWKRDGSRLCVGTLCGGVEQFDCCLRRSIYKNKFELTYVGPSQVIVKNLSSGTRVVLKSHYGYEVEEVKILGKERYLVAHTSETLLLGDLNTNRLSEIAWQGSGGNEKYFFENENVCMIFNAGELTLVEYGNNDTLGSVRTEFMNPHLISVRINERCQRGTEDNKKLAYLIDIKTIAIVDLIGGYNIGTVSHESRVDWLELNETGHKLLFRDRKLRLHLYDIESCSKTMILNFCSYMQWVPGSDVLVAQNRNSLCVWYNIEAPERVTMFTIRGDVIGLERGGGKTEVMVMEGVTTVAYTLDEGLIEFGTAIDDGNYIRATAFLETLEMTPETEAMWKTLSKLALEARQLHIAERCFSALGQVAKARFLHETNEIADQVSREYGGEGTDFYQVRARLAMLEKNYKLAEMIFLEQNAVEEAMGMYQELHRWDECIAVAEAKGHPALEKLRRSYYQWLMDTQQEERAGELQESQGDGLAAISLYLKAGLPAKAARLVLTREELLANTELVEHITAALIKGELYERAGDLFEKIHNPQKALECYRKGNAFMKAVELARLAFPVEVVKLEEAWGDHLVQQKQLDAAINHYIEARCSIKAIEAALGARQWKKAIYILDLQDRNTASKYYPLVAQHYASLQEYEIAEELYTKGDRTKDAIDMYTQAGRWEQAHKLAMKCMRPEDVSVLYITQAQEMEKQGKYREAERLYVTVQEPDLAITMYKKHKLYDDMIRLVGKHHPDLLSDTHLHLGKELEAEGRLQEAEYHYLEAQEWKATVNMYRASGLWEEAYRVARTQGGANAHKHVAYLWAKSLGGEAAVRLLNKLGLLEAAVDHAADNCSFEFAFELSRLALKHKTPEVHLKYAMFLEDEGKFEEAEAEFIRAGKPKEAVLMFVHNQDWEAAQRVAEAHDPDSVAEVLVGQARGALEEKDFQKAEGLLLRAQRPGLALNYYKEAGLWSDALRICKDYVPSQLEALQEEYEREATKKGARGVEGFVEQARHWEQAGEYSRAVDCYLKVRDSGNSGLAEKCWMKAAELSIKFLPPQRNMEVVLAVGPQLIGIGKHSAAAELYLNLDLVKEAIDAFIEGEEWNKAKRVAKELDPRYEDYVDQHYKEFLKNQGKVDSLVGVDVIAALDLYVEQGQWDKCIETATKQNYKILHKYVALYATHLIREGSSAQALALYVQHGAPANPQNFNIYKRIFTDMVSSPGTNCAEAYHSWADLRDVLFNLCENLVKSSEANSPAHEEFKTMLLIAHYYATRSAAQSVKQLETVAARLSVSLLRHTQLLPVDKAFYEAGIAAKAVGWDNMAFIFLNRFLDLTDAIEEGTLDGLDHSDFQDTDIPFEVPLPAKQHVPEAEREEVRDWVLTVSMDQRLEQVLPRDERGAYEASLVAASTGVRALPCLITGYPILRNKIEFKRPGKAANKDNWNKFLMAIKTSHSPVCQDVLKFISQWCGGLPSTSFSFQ

B1: LZTR1-FLAG (other, human, UniProt Q8N653 1-840, looked up)
chain: MAGPGSTGGQIGAAALAGGARSKVAPSVDFDHSCSDSVEYLTLNFGPFETVHRWRRLPPCDEFVGARRSKHTVVAYKDAIYVFGGDNGKTMLNDLLRFDVKDCSWCRAFTTGTPPAPRYHHSAVVYGSSMFVFGGYTGDIYSNSNLKNKNDLFEYKFATGQWTEWKIEGRLPVARSAHGATVYSDKLWIFAGYDGNARLNDMWTIGLQDRELTCWEEVAQSGEIPPSCCNFPVAVCRDKMFVFSGQSGAKITNNLFQFEFKDKTWTRIPTEHLLRGSPPPPQRRYGHTMVAFDRHLYVFGGAADNTLPNELHCYDVDFQTWEVVQPSSDSEVGGAEVPERACASEEVPTLTYEERVGFKKSRDVFGLDFGTTSAKQPTQPASELPSGRLFHAAAVISDAMYIFGGTVDNNIRSGEMYRFQFSCYPKCTLHEDYGRLWESRQFCDVEFVLGEKEECVQGHVAIVTARSRWLRRKITQARERLAQKLEQEAAPVPREAPGVAAGGARPPLLHVAIREAEARPFEVLMQFLYTDKIKYPRKGHVEDVLLIMDVYKLALSFQLCRLEQLCRQYIEASVDLQNVLVVCESAARLQLSQLKEHCLNFVVKESHFNQVIMMKEFERLSSPLIVEIVRRKQQPPPRTPLDQPVDIGTSLIQDMKAYLEGAGAEFCDITLLLDGHPRPAHKAILAARSSYFEAMFRSFMPEDGQVNISIGEMVPSRQAFESMLRYIYYGEVNMPPEDSLYLFAAPYYYGFYNNRLQAYCKQNLEMNVTVQNVLQILEAADKTQALDMKRHCLHIIVHQFTKVSKLPTLRSLSQQLLLDIIDSLASHISDKQCAELGADI
notes: Expressed in HEK 293T, HeLa or U87 cells; used as cell lysate; also called LZTR1 wild type-FLAG; LZTR1 WT; not shown: FLAG tag at the C-terminus
binds: all assays above
